Numbering of substitutions follows the chain as printed.

For the experiment, the target named is T1, FX zymogen (UniProt P00742 41-179; P00742 183-488).
T1 chain 1: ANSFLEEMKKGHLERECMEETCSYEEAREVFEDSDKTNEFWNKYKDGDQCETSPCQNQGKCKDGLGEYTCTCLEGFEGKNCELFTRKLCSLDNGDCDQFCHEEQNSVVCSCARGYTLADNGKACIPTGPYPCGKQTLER
T1 chain 2: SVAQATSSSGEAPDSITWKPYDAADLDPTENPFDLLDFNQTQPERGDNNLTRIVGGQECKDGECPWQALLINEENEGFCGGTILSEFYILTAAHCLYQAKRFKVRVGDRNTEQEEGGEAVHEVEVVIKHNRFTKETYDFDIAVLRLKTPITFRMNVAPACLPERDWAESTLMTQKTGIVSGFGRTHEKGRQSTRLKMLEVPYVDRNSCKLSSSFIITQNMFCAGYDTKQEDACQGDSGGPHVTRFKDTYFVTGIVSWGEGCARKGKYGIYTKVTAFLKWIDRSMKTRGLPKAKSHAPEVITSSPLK
The experiment can be described thus: BLI. For orientation: In BLI a coated tip is dipped into the sample, and binding shifts an interference pattern.

B1: BIIB-12-1333 (antibody, V domains shown)
VH: QVQLVQSGAEVKKPGASVKVSCKASGYTFTSYYMVWVRQAPGQGLEWMGIINPSGGSTSYAQKFQGRVTMTRDTSTSTVYMELSSLRSEDTAVYYCARVSRRDYPLAFDIWGQGTMVTVSS
VL: EIVMTQSPATLSVSPGERATLSCRASQSVSSNLAWYQQKPGQAPRLLIYGASTRATGIPARFSGSGSGTEFTLTISSLQSEDFAVYYCQQVNTWPTFGGGTKVEIK
Turning to B1, the Kd came out at 16 nM.

B2: BIIB-12-912 (antibody, V domains shown)
VH: QVQLVESGGGVVQPGRSLRLSCAASGFTFSSYGMHWVRQAPGKGLEWVAVISYDGSNKYYADSVKGRFTISRDNSKNTLYLQMNSLRAEDTAVYYCAKSGGRYGYDIWGQGTMVTVSS
VL: EIVMTQSPATLSVSPGERATLSCRASQSVSSNLAWYQQKPGQAPRLLIYGASTRATGIPARFSGSGSGTEFTLTISSLQSEDFAVYYCQQFHNFPPTFGGGTKVEIK
B2: the Kd came out at 31.1 nM.

B3: BIIB-12-1302 (antibody, V domains shown)
VH: QVQLVQSGAEVKKPGASVKVSCKASGYTFTNYGISWVRQAPGQGLEWMGWISAYNGNTNYAQKLQGRVTMTTDTSTSTAYMELRSLRSDDTAVYYCARARSDWRAFDIWGQGTMVTVSS
VL: B2 VL with F91V, H92N, F94L, P96L
As to B3, binding was put at a Kd of 64.1 nM.

B4: BIIB-12-905 (antibody, V domains shown)
VH: QVQLVESGGGVVQPGRSLRLSCAASGFTFSSYGMHWVRQAPGKGLEWVAVISYDGSNKYYADSVKGRFTISRDNSKNTLYLQMNSLRAEDTAVYYCAKGGTYLDTWGQGTLVTVSS
VL: EIVLTQSPGTLSLSPGERATLSCRASQSVRSSYLAWYQQKPGQAPRLLIYGASSRATGIPDRFSGSGSGTDFTLTISRLEPEDFAVYYCQQYGRFPPTFGGGTKVEIK
For B4, the affinity, expressed as Kd, was 48.4 nM.

B5: BIIB-12-1326 (antibody, V domains shown)
VH: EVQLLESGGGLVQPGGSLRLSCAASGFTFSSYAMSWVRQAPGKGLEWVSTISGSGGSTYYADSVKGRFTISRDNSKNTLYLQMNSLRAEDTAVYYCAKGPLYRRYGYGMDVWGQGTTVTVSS
VL: B4 VL with Y92A, G93Y, R94S, F95S, P97L
For B5, binding was characterised by a dissociation constant (Kd) of 24.1 nM.

B6: BIIB-12-1314 (antibody, V domains shown)
VH: B4 VH with G100T, T101R, Y102W, L103A, D104G, T105N
VL: DIQMTQSPSSVSASVGDRVTITCRASQGISSWLAWYQQKPGKAPKLLIYAASSLQSGVPSRFSGSGSGTDFTLTISSLQPEDFATYYCQQANFFPITFGGGTKVEIK
B6 returned a Kd of 10.4 nM. Against the preceding molecule, the Kd is about 2.3-fold lower.

B7: BIIB-12-908 (antibody, V domains shown)
VH: B4 VH with G100P, T101R, Y102G, L103M, T105V, L111T
VL: B6 VL with M4L, A50G, A91G, N92S, F93S, F94L
B7 had a Kd of 34 nM.

B8: BIIB-12-897 (antibody, V domains shown)
VH: QLQLQESGPGLVKPSETLSLTCTVSGGSISSSSYYWGWIRQPPGKGLEWIGSIYYSGSTYYNPSLKSRVTISVDTSKNQFSLKLSSVTAADTAVYYCAREGRTYYGGWFDPWGQGTLVTVSS
VL: B4 VL with R30S, Y92D, R94N, F95Y, P97Y
For B8, the Kd came out at 68 nM.

B9: BIIB-12-906 (antibody, V domains shown)
VH: B4 VH with G99S, G100S, T101R, Y102H, L103F, T105Y, Q108R
VL: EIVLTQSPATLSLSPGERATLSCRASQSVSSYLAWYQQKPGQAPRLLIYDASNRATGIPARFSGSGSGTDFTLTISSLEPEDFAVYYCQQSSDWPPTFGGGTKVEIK
In the case of B9, the Kd is 39.6 nM. Against the preceding molecule, the Kd is about 1.7-fold lower.

B10: BIIB-12-922 (antibody, V domains shown)
VH: QVQLVQSGAEVKKPGASVKVSCKASGYTFTSYYMHWVRQAPGQGLEWMGIINPSGGSTSYAQKFQGRVTMTRDTSTSTVYMELSSLRSEDTAVYYCARRGRIAGMWGQGTTVTVSS
VL: not shown
As for B10, the Kd came out at 38.6 nM.

B11: BIIB-12-898 (antibody, V domains shown)
VH: QVQLVQSGAEVKKPGASVKVSCKASGYTFTSYYMHWVRQAPGQGLEWMGIINPSGGSTTYAQKFQGRVTMTRDTSTSTVYMELSSLRSEDTAVYYCARGDRMLRAFDPWGQGTLVTVSS
VL: DIQLTQSPSTLSASVGDRVTITCRASQAISSWLAWYQQKPGKAPKLLIYDASSLESGVPSRFSGSGSGTEFTLTISSLQPDDFATYYCQQVNRFPFTFGGGTKVEIK
The molecule B11 registered a Kd of 18.5 nM.

B12: BIIB-12-907 (antibody, V domains shown)
VH: QVQLQESGPGLVKPSETLSLTCAVSGYSISSGYYWAWIRQPPGKGLEWIGSIYHSGSTYYNPSLKSRVTISVDTSKNQFSLKLSSVTAADTAVYYCARESGMSGAAYWGQGTLVTVSS
VL: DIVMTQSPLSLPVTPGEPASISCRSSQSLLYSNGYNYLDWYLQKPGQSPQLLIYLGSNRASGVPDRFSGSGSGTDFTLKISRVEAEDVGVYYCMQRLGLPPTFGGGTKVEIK
For B12, the Kd was 52 nM. Against the preceding molecule, the Kd is about 2.8-fold higher.

B13: BIIB-12-930 (antibody, V domains shown)
VH: QVQLVQSGAEVKKPGASVKVSCKASGYTFTSYYMHWVRQAPGQGLEWMGIINPSGGSTSYAQKFQGRVTMTRDTSTSTVYMELSSLRSEDTAVYYCARVRQKATLLFQHWGQGTLVTVSS
VL: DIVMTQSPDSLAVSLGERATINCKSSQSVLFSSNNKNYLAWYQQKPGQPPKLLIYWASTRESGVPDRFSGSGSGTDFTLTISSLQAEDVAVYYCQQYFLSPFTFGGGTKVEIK
On to B13, for which the affinity, expressed as Kd, was 56 nM.

B14: BIIB-12-1309 (antibody, V domains shown)
VH: QVQLVESGGGVVQPGRSLRLSCAASGFTFSSYGMHWVRQAPGKGLEWVAVISYDGSNKYYADSVKGRFTISRDNSKNTLYLQMNSLRAEDTAVYYCARGRYTSRYFQHWGQGTLVTVSS
VL: B6 VL with F93S, F94L
For the molecule B14, the Kd was 49.9 nM.

B15: BIIB-12-1329 (antibody, V domains shown)
VH: B14 VH with R100G, Y101A, T102G
VL: B2 VL with L11K, G50S, F91V, H92F, F94W, E105K
As to B15, the Kd amounted to 48.5 nM.

B16: BIIB-12-1307 (antibody, V domains shown)
VH: QVQLQESGPGLVKPSETLSLTCAVSGYSISSGYYWAWIRQPPGKGLEWIGSIYHSGSTYYNPSLKSRVTISVDTSKNQFSLKLSSVTAADTAVYYCARGPLPRSRGLAFDIWGQGTMVTVSS
VL: B6 VL with M4L, V11L, G28S, W32F, A34N, A91T, N92Y, F93S, F94T, I96L
Molecule B16 displayed a Kd of 19.8 nM.

B17: BIIB-12-1316 (antibody, V domains shown)
VH: B2 VH with G101Q, R102Y, Y103R, G104A, Y105F
VL: B6 VL with A91I, F93N, I96P
The molecule B17 gave a Kd of 45 nM.

B18: BIIB-12-919 (antibody, V domains shown)
VH: QVQLVQSGAEVKKPGASVKVSCKASGYTFTSYYMHWVRQAPGQGLEWMGVINPSGGSTSYAQKFQGRVTMTRDTSTSTVYMELSSLRSEDTAVYYCARGANIAVGRRYADYWGQGTLVTVSS
VL: DIQMTQSPSTLSASVGDRVTITCRASQSISSWLAWYQQKPGKAPKLLIYKASSLESGVPSRFSGSGSGTEFTLTISSLQPDDFATYYCQQVSSYPTFGGGTKVEIK
For the molecule B18, the affinity, expressed as Kd, was 23.1 nM.

B19: BIIB-12-937 (antibody, V domains shown)
VH: QVQLVQSGAEVKKPGASVKVSCKASGYTFTSYYMHWVRQAPGQGLEWMGIINPSGGSTSYAQKFQGRVTMTRDTSTSTVYMELSSLRSEDTAVYYCARPTRMLRSYGMDVWGQGTTVTVSS
VL: not shown
With B19, binding was put at a Kd of 23.7 nM.

The Kd is the equilibrium constant for the complex coming apart. The low end stands for tighter binding, the high end for weaker binding.

Source of the values: patent publication US20230192896A1 (published 2023).
